# According to the RNAGym collection of RNA variant scans (doi:10.1021/acssynbio.7b00057):
# B1: Pistol ribozyme (parent)
# chain: GGGUCGUUGUUCCAUAAUCGCGUGGAUAUGGCACGCAAGUUUCUACCGGGCACCGUAAAUGUCCGACUGGAGCCGUUCGGGCGGCUAUAAACAGACCUCAGGCCCGAAGCGUGGCGGCACCUGCCGCCGGUGGUAAAAAAGAUCGGAAGAGCACACGUCU
# Variants of: B1
# Assay: aptazyme ON/OFF ratio, guanine; higher = stronger switching; co-transcriptional cleavage with and without guanine
row,Variant,aptazyme ON/OFF ratio
1,U7A U8A G9C U11G C12U,1.71
2,U7A U8A G9C U11G C12A,1.1
3,U7A U8A G9C U11G C12G,1.4
4,U7A U8A G9C U10C U11C C12G C13G,1.04
5,U7A U8A G9C U10C U11C C12G C13U,1.03
6,U7A U8A G9C U10C U11C C12G C13A,1.02
7,U7A U8A G9C U10C U11G C13U,1.05
8,U7A U8A G9C U10C U11G C13A,1.06
9,U7A U8A G9C U10C U11G C13G,1.05
10,U7A U8A G9C U10A U11A C12G C13U,1.19
11,U7A U8A G9C U10A U11A C12G C13A,1.18
12,U7A U8A G9C U10A U11A C12G C13G,1.23
13,U7A U8A G9C U10C U11G C12U,1.08
14,U7A U8A G9C U10C U11G C12G,1.09
15,U7A U8A G9C U10C U11G C12A,1.07
16,U7A U8A G9U U10A U11C C12G C13U,1.18
17,U7A U8A G9U U10A U11C C12G C13A,1.18
18,U7A U8A G9U U10A U11C C12G C13G,1.15
19,U7A U8A G9U U10A U11A C12A C13G,1.2
20,U7A U8A G9U U10A U11A C12A C13U,1.18
21,U7A U8A G9U U10A U11A C12A C13A,1.35

row,Variant,aptazyme ON/OFF ratio
1,U7A U8A G9C U10C U11G C12U C13G,1.05
2,U7A U8A G9C U10C U11G C12U C13A,1.02
3,U7A U8A G9C U10C U11G C12U C13U,1.06
4,U7A U8A G9C U10A U11A C12U C13A,1.2
5,U7A U8A G9C U10A U11A C12U C13U,1.13
6,U7A U8A G9C U10A U11A C12U C13G,1.18
7,U7A U8A G9C U10A U11G C12U C13U,1.14
8,U7A U8A G9C U10A U11G C12U C13A,1.17
9,U7A U8A G9C U10A U11G C12U C13G,1.11
10,U7A U8A G9C U10A C12U C13U,1.04
11,U7A U8A G9C U10A C12U C13A,1.09
12,U7A U8A G9C U10A C12U C13G,1.1
13,U7A U8A G9U,2.12
14,U7A U8A G9C U10C C12G,1.04
15,U7A U8A G9C U10C C12U,1.07
16,U7A U8A G9C U10C C12A,1.03
17,U7A U8A G9U U10A U11C C12U C13G,1.05
18,U7A U8A G9U U10A U11C C12U C13U,1.21
19,U7A U8A G9U U10A U11C C12U C13A,1.06
20,U7A U8A G9C U10C U11C C13U,1.04
21,U7A U8A G9C U10C U11C C13G,1.07

row,Variant,aptazyme ON/OFF ratio
1,U7A U8A G9C U10C U11C C13A,1.03
2,U7A U8A G9C U11C C12A C13G,1.07
3,U7A U8A G9C U11C C12A C13U,1.05
4,U7A U8A G9C U11C C12A C13A,1.08
5,U7A U8A G9C U10A U11G C12G C13U,1.14
6,U7A U8A G9C U10A U11G C12G C13G,1.25
7,U7A U8A G9C U10A U11G C12G C13A,1.18
8,U7A U8A G9U U10A C12U C13G,1.23
9,U7A U8A G9U U10A C12U C13U,1.13
10,U7A U8A G9U U10A C12U C13A,1.05
11,U7A U8A G9C U11A C12G,1.19
12,U7A U8A G9C U11A C12U,1.2
13,U7A U8A G9C U11A C12A,1.22
14,U7A U8A G9U U10A U11G C12A,1.07
15,U7A U8A G9U U10A U11G C12G,1.19
16,U7A U8A G9U U10A U11G C12U,1.46
17,U7A U8A G9C U10A C12G C13U,1.16
18,U7A U8A G9C U10A C12G C13G,1.13
19,U7A U8A G9C U10A C12G C13A,1.15
20,U7A U8A G9C U10G U11C C12A C13U,1.23
21,U7A U8A G9C U10G U11C C12A C13A,1.19

row,Variant,aptazyme ON/OFF ratio
1,U7A U8A G9C U10G U11C C12A C13G,1.08
2,U7A U8A G9U U10A U11C C12G,1.18
3,U7A U8A G9U U10A U11C C12U,1.1
4,U7A U8A G9U U10A U11C C12A,1.22
5,U7A U8A G9C U10C U11G C12A C13A,0.981
6,U7A U8A G9C U10C U11G C12A C13G,1.03
7,U7A U8A G9C U10C U11G C12A C13U,1.03
8,U7A U8A G9C U11G C13U,1.31
9,U7A U8A G9C U11G C13G,1.1
10,U7A U8A G9C U11G C13A,1.22
11,U7A U8A G9U U10A U11A C13G,1.07
12,U7A U8A G9U U10A U11A C13A,1.23
13,U7A U8A G9U U10A U11A C13U,1.27
14,U7A U8A G9C U10G U11G C13A,1.28
15,U7A U8A G9C U10G U11G C13U,1.48
16,U7A U8A G9C U10G U11G C13G,1.18
17,U7A U8A G9U U10A C12A,1.27
18,U7A U8A G9U U10A C12G,1.41
19,U7A U8A G9U U10A C12U,1.16
20,U7A U8A G9C U10G C12A C13G,1.09
